Data from patent publication US20100003258A1 (AVEO PHARMACEUTICALS, published 2010).

T1: recombinant human FGFR3 IIIb Fc fusion protein (human, UniProt P22607-2 23-377, limits assumed)
T1 construct: Bought reagent; the IIIb splice isoform is meant; also called rhFGFR3 IIIb Fc; hFGFR3 IIIb; not shown: Fc fragment (removable by Factor Xa, detected with anti-human IgG)
T1 sequence (looked up): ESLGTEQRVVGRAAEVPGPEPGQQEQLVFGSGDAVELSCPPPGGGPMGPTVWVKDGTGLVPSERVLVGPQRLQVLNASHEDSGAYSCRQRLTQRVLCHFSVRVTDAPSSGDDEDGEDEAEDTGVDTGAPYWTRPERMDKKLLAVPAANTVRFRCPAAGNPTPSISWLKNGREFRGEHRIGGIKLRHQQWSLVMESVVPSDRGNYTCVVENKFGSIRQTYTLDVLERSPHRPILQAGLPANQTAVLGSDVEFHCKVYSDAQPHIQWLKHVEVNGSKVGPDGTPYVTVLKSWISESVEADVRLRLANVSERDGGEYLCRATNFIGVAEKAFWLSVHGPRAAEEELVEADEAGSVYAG

T2: recombinant human FGFR3 IIIc Fc fusion protein (human, UniProt P22607 23-375)
T2 construct: Bought reagent; also called rhFGFR3 IIIc Fc; not shown: Fc fragment (removable by Factor Xa)
T2 sequence (looked up): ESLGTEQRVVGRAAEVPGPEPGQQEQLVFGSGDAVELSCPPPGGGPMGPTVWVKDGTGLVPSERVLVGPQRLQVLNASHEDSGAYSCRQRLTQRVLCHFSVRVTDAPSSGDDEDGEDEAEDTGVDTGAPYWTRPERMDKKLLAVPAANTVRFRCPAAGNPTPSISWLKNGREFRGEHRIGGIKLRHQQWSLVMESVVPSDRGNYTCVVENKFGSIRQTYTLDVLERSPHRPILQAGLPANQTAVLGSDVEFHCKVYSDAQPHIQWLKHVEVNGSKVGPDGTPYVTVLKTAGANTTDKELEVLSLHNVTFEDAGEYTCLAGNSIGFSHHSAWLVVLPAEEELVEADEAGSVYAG


What was measured:
[1] = target: T1, recombinant human FGFR3 IIIb Fc fusion …; assay: SPR (Biacore T100), antibody captured on anti-mouse Ig, rhFGFR3 IIIb Fc as analyte, 37 C
Experimental: (§1) The binding affinities and kinetics of interaction of the monoclonal antibodies (15D8, 27H2, 2G4, and 4E7(7D12)) produced in Example 1 against recombinant human FGFR3 (IIIb and IIIc isoforms) Fc fusion protein (rhFGFR3 IIIb Fc or rhFGFR3 IIIc Fc) were measured by surface plasmon resonance using a Biacore™ T100 (Biacore) instrument.
(§2) Rabbit anti-mouse immunoglobulins (Biacore, Catalog No. BR-1005-14) were immobilized on carboxymethylated dextran CM4 sensor chips (Biacore, Catalog No. BR-1005-34) by amine coupling (Biacore, Catalog No. BR-1000-50) using a standard coupling protocol according to manufacturer's instructions.
(§3) The antibodies were captured in an individual flow cell at a flow rate of 10 μl/min. Injection time was varied for each antibody to yield approximately 40-50 RU of antibody captured for each cycle. Buffer or rhFGFR3 IIIb Fc (R&D Systems, Catalog No. 1264-FR-050) or rhFGFR3 IIIc Fc (R&D Systems, Catalog No. 766-FR-050) diluted in running buffer was injected sequentially over a reference surface (no antibody captured) and the active surface (antibody to be tested) for 300 sec at 60 μl/min. The dissociation phase was monitored for 30 minutes. The surface was then regenerated with two 60-seconds injection of 10 mM Glycine-HCl, pH 1.7 (made from Glycine pH 1.5 (Biacore, Catalog No. BR-1003-54) and pH 2.0 (Biacore, Catalog No. BR-1003-55)) at a flow rate of 60 μl/min. rhFGFR3 Fc concentrations tested were 0.62 nM to 40 nM.

[2] = target: T1, recombinant human FGFR3 IIIb Fc fusion …; assay: ECL competition assay: inhibition of rhFGFR3 IIIb Fc binding to coated FGF1 (competitor FGF1)
Experimental: The antibodies were tested by ECL (Electrochemiluminescence) assay for inhibition of hFGFR3 IIIB binding to FGF-1. […] The plates then were washed 3 times with PBS and blocked with 200 μl of PBS containing 5% BSA (Sera Care Life Sciences, Catalog No. AP-4510-80) and 5 μg/mL heparin (Sigma, Catalog No. H4784) for 1 hour at room temperature. The antibodies (concentration range: 0.029-30 μg/mL) were incubated for 1 hour at room temperature with 1.7 μg/mL rhFGFR3 IIIb Fc (R&D Systems, Catalog No. 1264-FR-050) and 5 μg/mL heparin. After washing the plates 3 times with PBS, 25 μl of the antibody-receptor mixture was added to the plates for another hour at room temperature with agitation. The plates were washed three times with PBS and incubated with 25 μl of 1 μg/mL ST-anti-human IgG antibody (Meso Scale Discovery, Catalog No. R32AJ-1) for 1 hour at room temperature with agitation. The plates then were washed 3 times with PBS, and 150 μl of 1× read buffer (Meso Scale Discovery, Catalog No. R92TC-1) was added to each well before the plates were analyzed on a Sector Imager 2400 (Meso Scale Discovery) instrument.

[3] = target: T2, recombinant human FGFR3 IIIc Fc fusion …; assay: SPR (Biacore T100), antibody captured on anti-mouse Ig, rhFGFR3 IIIc Fc as analyte, 37 C
Experimental: as §1, §2, §3

[4] = target: T2, recombinant human FGFR3 IIIc Fc fusion …; assay: SPR (Biacore T100), antibody captured on anti-mouse Ig, rhFGFR3 IIIc Fc as analyte, 25 C
Experimental: as §1, §2, §3

[5] = target: T1, recombinant human FGFR3 IIIb Fc fusion …; assay: SPR (Biacore T100), antibody captured on anti-mouse Ig, rhFGFR3 IIIb Fc as analyte, 25 C
Experimental: as §1, §2, §3

| Kd [1] | koff [1] | kon [1] | IC50 [2] | Maximum Neutralization (%) [2] | Kd [3] | koff [3] | kon [3] | Kd [4] | koff [4] | kon [4] | Kd [5] | koff [5] | kon [5] | Binder |
| --- | --- | --- | --- | --- | --- | --- | --- | --- | --- | --- | --- | --- | --- | --- |
| 3.3 nM | 0.00023 s⁻¹ | 74000 M⁻¹ s⁻¹ | 18.5 nM | 91.2% | 2.2 nM | 0.00017 s⁻¹ | 94000 M⁻¹ s⁻¹ | 2.6 nM | 0.00019 s⁻¹ | 110000 M⁻¹ s⁻¹ | 3.3 nM | 0.00037 s⁻¹ | 150000 M⁻¹ s⁻¹ | anti-FGFR3 monoclonal antibody 4E7 (antibody, mouse IgG1, kappa, V domains shown, Murine IgG1/kappa from hybridoma; also called 4E7 IgG1; 4E7 (7D12)) VH: EIQLQQSGPELVKPGASVKVSCKASGYAFTSYNMYWVKQSHGKSLEWIGYIDPYNGGTRYNQKFKGKATLTVDKSSSTAYMHLNSLTSEDSAVYYCAREGGNYEAWFAYWGQGTLVTVSA VL: QIVLTQSPALMSASPGEKVTMTCSASSSVSYMYWYQQKPRSSPKPWIYLTSNLASGVPARFSGSGSGTSYSLTISSMEAEDAATYYCQQWSSNPLTFGAGTKLELKR |
|  |  |  | 50 nM | 88.8% |  |  |  |  |  |  |  |  |  | 7D12 Fab (Fab, V domains shown, not shown: a dimerising Fc or GST, preparation not described; also called anti-FGFR3 Fab fragment 7D12) VH: EIQLQQSGPELVKPGASVKVSCKASGYAFTSYNMYWVKQSHGKSLEWIGYIDPYNGGTRYNQKFKGKATLTVDKSSSTAYMHLNSLTSEDSAVYYCAREGGNYEAWFAYWGQGTLVTVSA VL: QIVLTQSPALMSASPGEKVTMTCSASSSVSYMYWYQQKPRSSPKPWIYLTSNLASGVPARFSGSGSGTSYSLTISSMEAEDAATYYCQQWSSNPLTFGAGTKLELKR |
|  |  |  | 13.3 nM | 93.9% |  |  |  |  |  |  |  |  |  | anti-FGFR3 monoclonal antibody 7D12 (antibody, mouse IgG1, kappa, V domains shown, Murine IgG1/kappa from a separate hybridoma; also called 7D12 IgG1; 4E7 (7D12)) VH: EIQLQQSGPELVKPGASVKVSCKASGYAFTSYNMYWVKQSHGKSLEWIGYIDPYNGGTRYNQKFKGKATLTVDKSSSTAYMHLNSLTSEDSAVYYCAREGGNYEAWFAYWGQGTLVTVSA VL: QIVLTQSPALMSASPGEKVTMTCSASSSVSYMYWYQQKPRSSPKPWIYLTSNLASGVPARFSGSGSGTSYSLTISSMEAEDAATYYCQQWSSNPLTFGAGTKLELKR |
|  |  |  | 69.5 nM | 92.2% |  |  |  |  |  |  |  |  |  | 4E7 Fab (Fab, V domains shown, not shown: a dimerising Fc or GST, Fab fragment of murine 4E7; preparation not described; also called anti-FGFR3 Fab fragment 4E7) VH: EIQLQQSGPELVKPGASVKVSCKASGYAFTSYNMYWVKQSHGKSLEWIGYIDPYNGGTRYNQKFKGKATLTVDKSSSTAYMHLNSLTSEDSAVYYCAREGGNYEAWFAYWGQGTLVTVSA VL: QIVLTQSPALMSASPGEKVTMTCSASSSVSYMYWYQQKPRSSPKPWIYLTSNLASGVPARFSGSGSGTSYSLTISSMEAEDAATYYCQQWSSNPLTFGAGTKLELKR |
| 1.4 nM | 0.00023 s⁻¹ | 150000 M⁻¹ s⁻¹ | 11.1 nM | 64.9% | 2.6 nM | 0.00026 s⁻¹ | 100000 M⁻¹ s⁻¹ | 1.1 nM | 0.00011 s⁻¹ | 100000 M⁻¹ s⁻¹ | 3.2 nM | 0.00032 s⁻¹ | 120000 M⁻¹ s⁻¹ | anti-FGFR3 monoclonal antibody 2G4 (antibody, mouse IgG1, kappa, V domains shown, Murine IgG1/kappa from hybridoma; also called 2G4 IgG1; murine antibody 2G4) VH: EIQLQQSGPELVKPGASVKVSCKASGYAFTSYNMYWVKQSHGKSLEWIGYIDPYNGGTRDNQKFKGKATLTVDKSSSTAYMHLNSLTSEDSAVYYCAREGGNYEAWFAYWGQGTLVTVSA VL: QIVLTQSPALMSASPGEKVTMTCSASSSVSYMYWYQQKPRSSPKPWIYLTSNLASGVPARFSGSGSGTSYSLTISSMEAEDAATYYCQQWSSNPLTFGAGTKLELKR |
|  |  |  | 63.8 nM | 91.7% |  |  |  |  |  |  |  |  |  | 15D8 Fab (Fab, V domains shown, not shown: a dimerising Fc or GST, Fab fragment of murine 15D8; preparation not described; also called anti-FGFR3 Fab fragment 15D8) VH: EIQLQQSGPELVKPGASVKVSCKASGYAFTSYNMYWVKQSHGKSLEWIGYIDPYNGGTSYNQKFKGKATLTVDKSSSTAYMHLNSLTSEDSAVYYCAREGGNYEAWFAYWGQGTLVTVSA VL: QIVLTQSPALMSASPGEKVTMTCSASSSVSYMYWYQQKPRSSPKPWIYLTSYLASGVPARFSGSGSGTSYSLTISSMEAEDAATYYCQQWSSYPLTFGAGTKLELKR |
|  |  |  | 65 nM | 96.2% |  |  |  |  |  |  |  |  |  | 2G4 Fab (Fab, V domains shown, not shown: a dimerising Fc or GST, Fab fragment of murine 2G4; preparation not described; also called anti-FGFR3 Fab fragment 2G4) VH: EIQLQQSGPELVKPGASVKVSCKASGYAFTSYNMYWVKQSHGKSLEWIGYIDPYNGGTRDNQKFKGKATLTVDKSSSTAYMHLNSLTSEDSAVYYCAREGGNYEAWFAYWGQGTLVTVSA VL: QIVLTQSPALMSASPGEKVTMTCSASSSVSYMYWYQQKPRSSPKPWIYLTSNLASGVPARFSGSGSGTSYSLTISSMEAEDAATYYCQQWSSNPLTFGAGTKLELKR |
|  |  |  | 53.5 nM | 95.8% |  |  |  |  |  |  |  |  |  | 27H2 Fab (Fab, V domains shown, not shown: a dimerising Fc or GST, Fab fragment of murine 27H2; preparation not described; also called anti-FGFR3 Fab fragment 27H2) VH: EIQLQQSGPELVKPGASVKVSCKASGYAFTSYNMYWVKQSHGKSLEWIGYIDPYNGGTRYNQKFKGKATMTVDKSSSTAYMHLNSLTSEDSAVYYCAREGGNYEAWFAYWGQGTLVTVSA VL: QIVLTQSPALMSASPGEKVTMTCSASSSVSYMYWYQQKPRSSPKPWIYLTSNLASGVPARFSGSGSGTSYSLTISSMEAEDAATYYCQQWSSNPLTFGAGTKLELKR |
| 2.1 nM | 0.00019 s⁻¹ | 100000 M⁻¹ s⁻¹ | 15.4 nM | 99.6% | 2.1 nM | 0.0002 s⁻¹ | 96000 M⁻¹ s⁻¹ | 2.1 nM | 0.00016 s⁻¹ | 75000 M⁻¹ s⁻¹ | 3 nM | 0.00026 s⁻¹ | 90000 M⁻¹ s⁻¹ | anti-FGFR3 monoclonal antibody 27H2 (antibody, mouse IgG1, kappa, V domains shown, Murine IgG1/kappa from hybridoma; also called 27H2 IgG1; murine antibody 27H2) VH: EIQLQQSGPELVKPGASVKVSCKASGYAFTSYNMYWVKQSHGKSLEWIGYIDPYNGGTRYNQKFKGKATMTVDKSSSTAYMHLNSLTSEDSAVYYCAREGGNYEAWFAYWGQGTLVTVSA VL: QIVLTQSPALMSASPGEKVTMTCSASSSVSYMYWYQQKPRSSPKPWIYLTSNLASGVPARFSGSGSGTSYSLTISSMEAEDAATYYCQQWSSNPLTFGAGTKLELKR |
